Experimental data as given in the supplement of paper PMC12667976.

B1: library; numbered along this chain (parent)
chain: MATDAALRRLLRLHRTEIAVAVDSAFPLLHALADHDVVPEDKFQETLHLKEKEGCPQAFHALLSWLLTQDSTAILDFWRVLFKDYNLERYGRLQPILDSFPKDVDLSQPRKGRKPPAVPKALVPPPRLPTKRKASEEARAAAPAALTPRGTASPGSQLKAKPPKKPESSAEQQRLPLGNGIQTMSASVQRAVAMSSGDVPGARGAVEGILIQQVFESGGSKKCIQVGGEFYTPSKFEDSGSGKNKARSSSGPKPLVRAKGAQGAAPGGGEARLGQQGSVPAPLALPSDPQLHQKNEDECAVCRDGGELICCDGCPRAFHLACLSPPLREIPSGTWRCSSCLQATVQEVQPRAEEPRPQEPPVETPLPPGLRSAGEEVRGPPGEPLAGMDTTLVYKHLPAPPSAAPLPGLDSSALHPLLCVGPEGQQNLAPGARCGVCGDGTDVLRCTHCAAAFHWRCHFPAGTSRPGTGLRCRSCSGDVTPAPVEGVLAPSPARLAPGPAKDDTASHEPALHRDDLESLLSEHTFDGILQWAIQSMARPAAPFPS

Variants of: B1
Assay: AIRE transcriptional activation functional score (insulin promoter-GFP; nonsense median 0, synonymous median 1) (normalised score); higher = higher AIRE activity (more reporter activation)
Conditions: with insulin promoter-GFP reporter in HEK293
In short: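 The functional score compares variant enrichment between select and non-select populations after subtracting wild type. To obtain it, codon-optimized AIRE NNN-codon libraries spanning three regions were placed by Bxb1 recombinase into Flp-In T-REx HEK293 landing-pad cells with an insulin core promoter-GFP reporter. Cells with the top 10% GFP and unselected integrants were tile-sequenced after mCherry+, BFP− integrants had been sorted at day 7 and grown 7 more days. Only variants with 10 counts per million in non-select were kept, rescaled to nonsense median 0 and synonymous median 1, and averaged across biological replicates.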

AIRE transcriptional activation functional score: each site, then its substitutions
C457: D 0.0222 | W 0.0502 | I -0.23 | R -0.0861 | Y 0.105 | T -0.0599 | S -0.11 | F 0.264 | G 0.0376 | L -0.0524 | M -0.234 | Q 0.613 | H 0.798 | V 0.0733 | E 0.0401 | A 0.0339 | P 0.211
H454: K 0.0788 | E 0.0475 | S -0.00319 | Y 0.205 | D 0.289 | A -0.16 | G 0.0883 | W 0.31 | R -0.0692 | I -0.0282 | N -0.0603 | C 0.499 | T 0.0122 | L -0.161 | M -0.148 | V 0.0829 | Q 0.0498 | P 0.129 | F 0.117
A461: M 1.27 | D 0.676 | H 1.23 | E 0.952 | P 1.19 | Y 1.16 | R 0.878 | S 1.22 | W 1.01 | V 1.17 | C 0.883 | K 1.18 | L 1.28 | T 0.39 | Q 0.964 | G 1.29 | I 0.816 | N 1.38 | F 1.21
W455: Q 1.09 | P 1.3 | S 0.675 | Y 0.988 | I 0.29 | N 1.34 | T 0.727 | D 0.9 | M 0.774 | G 0.965 | E 1.17 | V 1.17 | L 1.03 | F 1.3 | K 0.572 | A 1.1 | R 0.879 | H 0.823 | C 1.09
R456: H 1.2 | P 1.1 | D 0.851 | K 0.0856 | L 1.04 | N 0.016 | F -0.0642 | W -0.304 | I 1.1 | V -0.245 | S 0.726 | Y 1.51 | A 1.16 | E 1.24 | T 1.32 | G 1.27 | C 1.3 | Q 1.13
F453: K -0.248 | M 0.268 | W 1.24 | G 0.315 | S 0.166 | L 0.17 | Y 0.32 | R 0.106 | V 0.154 | N 0.22 | I 0.235 | T 0.101 | P 0.207 | H 0.147 | E -0.452 | Q -0.136
G462: A 0.924 | C 0.984 | D 0.731 | E 0.465 | F 1.26
H458: S 0.164 | E 0.661 | I -0.227 | L 0.474 | M 0.387 | R 0.586 | T 1.16 | D 1.4 | A 0.981 | Y 0.864 | G 0.842 | N 0.71 | V 0.655 | F 0.227 | P 0.0561 | Q 0.165 | K 0.374 | C 1.02
P460: I 1.01 | L 0.827 | T 0.871 | G 0.909 | S 0.714 | C -0.358 | R 0.824 | N 1.07 | H 1.05 | Q 0.787 | F 0.995 | E 1.16 | K 0.952 | M 1.17 | D 0.0955 | V 0.608 | Y 0.38 | A 1.14
F459: D 0.929 | P 0.572 | W 0.395 | T 0.589 | G 0.834 | Y 1.3 | N 1.27 | L 0.464 | H 1 | C 0.343 | A 0.0803 | R 0.444 | Q 1.14 | E 0.803 | S 0.591 | K 0.78 | I 0.371 | V 0.585
